This is an account of results in paper PMC6735392, “The miR-26a/AP-2α/Nanog signaling axis mediates stem cell self-renewal and temozolomide resistance in glioma”.

The target in the data set is GST-AP-2α (UniProt P05549 1-437). The experiment in a line: EMSA; EMSA/Gel-Shift Kit (Beyotime) binding buffer, 10 μL, 5 μg GST-AP-2α, 2 pmol biotin probe, 30 min room temperature, 4% nondenaturing gel; salt and pH not stated. The settings on record: protein: recombinant, tags: GST, blunt. Background: A gel shift assay detects complexes by their altered migration in electrophoresis.
Chain of GST-AP-2α (P05549 whole entry): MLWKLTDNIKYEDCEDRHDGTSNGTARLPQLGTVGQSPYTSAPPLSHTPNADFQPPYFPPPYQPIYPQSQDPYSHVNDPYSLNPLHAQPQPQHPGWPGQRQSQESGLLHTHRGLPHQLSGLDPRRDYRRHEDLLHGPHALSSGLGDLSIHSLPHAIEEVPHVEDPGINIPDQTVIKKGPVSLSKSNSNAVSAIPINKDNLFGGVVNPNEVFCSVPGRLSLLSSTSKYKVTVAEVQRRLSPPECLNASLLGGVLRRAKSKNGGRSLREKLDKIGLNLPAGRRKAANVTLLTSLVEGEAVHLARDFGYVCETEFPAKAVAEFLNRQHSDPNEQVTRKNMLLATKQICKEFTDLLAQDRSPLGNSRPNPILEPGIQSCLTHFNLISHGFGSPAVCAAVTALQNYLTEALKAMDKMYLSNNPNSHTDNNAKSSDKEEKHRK

B1: Nanog(-527/-503) mut (dsDNA)
DNA 1: GGTGGGCCACCAAGCCCATACTTTT
DNA 2: AAAAGTATGGGCTTGGTGGCCCACC
With B1, the binding result (label: 3' biotin) was “no binding”.

B2: Nanog(-568/-544) mut (dsDNA)
DNA 1: GATCCGCCTATTACGTCATCCCAAT
DNA 2: ATTGGGATGACGTAATAGGCGGATC
As for B2, where the note is “label: 3' biotin”, the binding result is recorded as “no binding”.

B3: Nanog(-568/-544) WT (dsDNA)
DNA 1: GATCCGCCTGCCACGGCCTCCCAAT
DNA 2: ATTGGGAGGCCGTGGCAGGCGGATC
B3: where the note is “label: 3' biotin (hot probe)”, the binding result is reported as “binds”.

B4: Nanog(-527/-503) WT (dsDNA)
DNA 1: GGTGGGCCACCGCGCCCGGCCTTTT
DNA 2: AAAAGGCCGGGCGCGGTGGCCCACC
For B4, the binding result (label: 3' biotin (hot probe)) is “binds”.
